Measured values published in paper PMC7608914, “Bridging of nucleosome-proximal DNA double-strand breaks by PARP2 enhances its interaction with HPF1” (PLoS ONE, 2019).

Assays:
[1] = target: T1, Alexa488-labeled PARP2-WT (human, UniProt Q9UGN5-2 1-570, Alexa Fluor 488 C5 maleimide (extent of labeling typically between 20 and 80%); labelled residue not stated); experiment: FRET or BRET; Alexa647-labeled HPF1 (acceptor) titrated from 18.5 μM to 0 μM into 1 μM Alexa488-labeled PARP2 (donor) alone or into the preformed PARP2–Nuc165 complex (1 μM / 100 nM); 50 mM Tris-HCl pH 8, 50 mM NaCl, 1 mM MgCl2, 0.1 mM EDTA, 0.1 mM TCEP, 0.01% NP-40; Hill model; details: both partners purified
T1 construct: human Poly(ADP-ribose) Polymerase 2, isoform 2 cDNA in pET28b; the mutant made from this vector is called full-length; source: E. coli Rosetta2 (DE3) pLysS, purified (HisTrap, heparin, Superdex 200), then labelled

[2] = target: T2, Alexa488-labeled PARP2-QFRD (human, UniProt Q9UGN5-2 1-570, Q112R | F113D, Alexa Fluor 488 C5 maleimide (extent of labeling typically between 20 and 80%); labelled residue not stated); experiment: as above; details: both partners purified
T2 construct: human Poly(ADP-ribose) Polymerase 2, isoform 2 cDNA in pET28b, Q112R/F113D double point mutant; source: E. coli Rosetta2 (DE3) pLysS, purified (HisTrap, heparin, Superdex 200), then labelled

Kd [1]: > 3 µM
Kd [2]: > 10 µM
B1: Alexa647-labeled HPF1 (natural protein, human, UniProt Q9NWY4 1-346, looked up)
chain: MVGGGGKRRPGGEGPQCEKTTDVKKSKFCEADVSSDLRKEVENHYKLSLPEDFYHFWKFCEELDPEKPSDSLSASLGLQLVGPYDILAGKHKTKKKSTGLNFNLHWRFYYDPPEFQTIIIGDNKTQYHMGYFRDSPDEFPVYVGINEAKKNCIIVPNGDNVFAAVKLFLTKKLREITDKKKINLLKNIDEKLTEAARELGYSLEQRTVKMKQRDKKVVTKTFHGAGLVVPVDKNDVGYRELPETDADLKRICKTIVEAASDEERLKAFAPIQEMMTFVQFANDECDYGMGLELGMDLFCYGSHYFHKVAGQLLPLAYNLLKRNLFAEIIEEHLANRSQENIDQLAA
modifications: Alexa Fluor 647 C2 maleimide (extent of labeling typically between 20 and 80%); labelled residue not stated
notes: human HPF1; cDNA amplified by PCR and cloned between the Nde1 and Xho1 sites of pET28a; also called HPF1_Alexa647; HPF1_A647; source: E. coli Rosetta2 (DE3) pLysS, purified (HisTrap, Superdex 75), then labelled
